According to the RNAGym collection of RNA variant scans (doi:10.7554/elife.90254):

B1: LINE1-full (parent)
chain: UACGUAGGUGGUUUUCCCCUGAUAGUGCUAAGGGGGCCUGGAAGUUUGGACUGGGCAGAGCUCAACACAGCGUGGCAAAGUGGCUGUGGCUAGACUGCCUCUCUGGAUUCCUCGUCACUCAGCAGGGCAUCUCUGAGAGAAAUGCC

Variants of: B1
Assay: self-cleavage, relative activity (ratio to wild type); higher = more cleavage; in vitro, sequencing; the parent is a self-cleaving ribozyme

Variant | self-cleavage
A107G A142U | 0.74
A107G C110A | 1.13
A107G C113A | 1.94
A107G C113U | 1.39
A107G C116A | 1.71
A107G C118U | 1.56
A107G C145U | 1.45
A107G G114A | 1.18
A107G G125U | 1.96
A107G G126C | 2.78
A107G G126U | 1.48
A107G G135A | 1.64
A107G G137U | 2.3
A107G G139A | 1.19
A107G G139U | 2.42
A107G U108C | 1.42
A107G U109C | 1.14
A107G U115G | 0
A107G U119A | 1.91
A107G U119C | 1.31
A107G U119G | 0.84
A107G U130C | 2.26
A107G U132A | 0.88
A107G U143A | 1.51

Variant | self-cleavage
A107U A117G | 1.34
A107U A121G | 1.62
A107U A129G | 2.12
A107U A129U | 1.86
A107U A136G | 1.92
A107U A138G | 1.71
A107U A141G | 1.52
A107U A142G | 2.36
A107U C113U | 0.69
A107U C146U | 1.21
A107U G127A | 0.93
A107U U109A | 1.98
A107U U109C | 1.58
A107U U112A | 2.03
A107U U115C | 1.55
A107U U119C | 2.16
A107U U130C | 2.08
A107U U134G | 1.9
U108A A117G | 1.97
U108A A124G | 1.55
U108A A129G | 0.99
U108A A136G | 0.53
U108A A136U | 1.24
U108A A138G | 1.79

Variant | self-cleavage
U108A A142G | 1.55
U108A U115C | 1.52
U108A U130A | 0.38
U108A U132G | 2.7
U108A U143C | 1.32
U108C A117C | 2.24
U108C A117G | 1.62
U108C A121G | 1.68
U108C A121U | 2.15
U108C A124C | 1.57
U108C A136G | 1.83
U108C A138G | 1.8
U108C A140G | 1.74
U108C A141G | 1.65
U108C A142G | 1.94
U108C C110A | 1.49
U108C C111A | 1.76
U108C C113A | 1.45
U108C C120A | 1.45
U108C C123U | 2.22
U108C C131U | 2.2
U108C C145A | 1.47
U108C C145G | 2.49
U108C C146U | 0.63

Variant | self-cleavage
U108C G126U | 2.03
U108C G127A | 1.64
U108C G135A | 1.6
U108C U109C | 1.51
U108C U115C | 1.86
U108C U119C | 2
U108C U130C | 1.66
U108C U130G | 1.02
U108C U134G | 2.43
U108C U143C | 1.75
U108C U143G | 1.23
U108G A121U | 1.86
U108G G122C | 0
U108G U112C | 2.58
U108G U115C | 1.58
U108G U130A | 0.77
U109A A117G | 1.42
U109A A117U | 1.51
U109A A121G | 1.82
U109A A124U | 1.61
U109A A140U | 1.22
U109A A141G | 1.76
U109A A142G | 1.39
U109A C123U | 1.34

Variant | self-cleavage
U109A C131A | 1.59
U109A G126A | 1.34
U109A U119A | 1.36
U109A U130C | 1.54
U109A U143A | 1.75
U109A U143C | 1.8
U109C A121C | 0.99
U109C A121G | 1.58
U109C A124G | 0.78
U109C A136U | 1.45
U109C A138G | 1.69
U109C A142C | 1.45
U109C A142G | 0.77
U109C A142U | 1.49
U109C C111U | 1.31
U109C C113A | 0.99
U109C C113U | 1.28
U109C C116U | 1.5
U109C C123U | 1.22
U109C C133U | 1.37
U109C G114U | 1.33
U109C G126A | 1.83
U109C U115A | 0.82
U109C U115C | 1.22

Variant | self-cleavage
U109C U119A | 0.7
U109C U119C | 1.61
U109C U130A | 1.24
U109C U130C | 1.49
U109C U132A | 1.14
U109C U132C | 1.03
U109C U134A | 0.22
U109C U143A | 1.18
U109C U143G | 0.87
U109G A121G | 0
U109G A124G | 1.04
U109G C128U | 1.17
U109G C145A | 0.34
U109G G127A | 1.53
U109G U119C | 0.49
C110A | 1.35
C110A A138G | 0.95
C110A A140G | 1.44
C110A G139A | 1.17
C110A G139C | 1.08
C110A U112C | 1.56
C110A U119C | 1.51
C110G | 1.04
C110G A129G | 1.36

Variant | self-cleavage
C110U | 1.51
C110U A124G | 0.82
C110U A136C | 2.76
C110U A140G | 1.41
C110U A141U | 0.84
C110U G126A | 1.34
C110U G127A | 1.35
C110U U112A | 1.4
C110U U119C | 1.39
C110U U132C | 1.45
C111A | 1.25
C111A A117G | 1.69
C111A A141G | 1.03
C111A A141U | 1.14
C111A U130A | 1.16
C111U | 1.38
C111U A121U | 1.28
C111U A136G | 1.26
C111U A141G | 0.45
C111U G137A | 1.73
C111U U115C | 1.55
C111U U130C | 1.75
U112A | 1.43
